Here are results for one substance from patent US20210319279A1.

For this experiment, the target named is SBE FLAG9 (three 3xFLAG domains joined by rigid linkers) displayed on the yeast cell wall as a fusion to truncated FLO11 (S. cerevisiae) (UniProt P08640). The experiment can be described thus: cell-based or functional assay.
Sequence of UniProt P08640 (P08640 other isoform, or with tags, fused parts or gaps limits assumed): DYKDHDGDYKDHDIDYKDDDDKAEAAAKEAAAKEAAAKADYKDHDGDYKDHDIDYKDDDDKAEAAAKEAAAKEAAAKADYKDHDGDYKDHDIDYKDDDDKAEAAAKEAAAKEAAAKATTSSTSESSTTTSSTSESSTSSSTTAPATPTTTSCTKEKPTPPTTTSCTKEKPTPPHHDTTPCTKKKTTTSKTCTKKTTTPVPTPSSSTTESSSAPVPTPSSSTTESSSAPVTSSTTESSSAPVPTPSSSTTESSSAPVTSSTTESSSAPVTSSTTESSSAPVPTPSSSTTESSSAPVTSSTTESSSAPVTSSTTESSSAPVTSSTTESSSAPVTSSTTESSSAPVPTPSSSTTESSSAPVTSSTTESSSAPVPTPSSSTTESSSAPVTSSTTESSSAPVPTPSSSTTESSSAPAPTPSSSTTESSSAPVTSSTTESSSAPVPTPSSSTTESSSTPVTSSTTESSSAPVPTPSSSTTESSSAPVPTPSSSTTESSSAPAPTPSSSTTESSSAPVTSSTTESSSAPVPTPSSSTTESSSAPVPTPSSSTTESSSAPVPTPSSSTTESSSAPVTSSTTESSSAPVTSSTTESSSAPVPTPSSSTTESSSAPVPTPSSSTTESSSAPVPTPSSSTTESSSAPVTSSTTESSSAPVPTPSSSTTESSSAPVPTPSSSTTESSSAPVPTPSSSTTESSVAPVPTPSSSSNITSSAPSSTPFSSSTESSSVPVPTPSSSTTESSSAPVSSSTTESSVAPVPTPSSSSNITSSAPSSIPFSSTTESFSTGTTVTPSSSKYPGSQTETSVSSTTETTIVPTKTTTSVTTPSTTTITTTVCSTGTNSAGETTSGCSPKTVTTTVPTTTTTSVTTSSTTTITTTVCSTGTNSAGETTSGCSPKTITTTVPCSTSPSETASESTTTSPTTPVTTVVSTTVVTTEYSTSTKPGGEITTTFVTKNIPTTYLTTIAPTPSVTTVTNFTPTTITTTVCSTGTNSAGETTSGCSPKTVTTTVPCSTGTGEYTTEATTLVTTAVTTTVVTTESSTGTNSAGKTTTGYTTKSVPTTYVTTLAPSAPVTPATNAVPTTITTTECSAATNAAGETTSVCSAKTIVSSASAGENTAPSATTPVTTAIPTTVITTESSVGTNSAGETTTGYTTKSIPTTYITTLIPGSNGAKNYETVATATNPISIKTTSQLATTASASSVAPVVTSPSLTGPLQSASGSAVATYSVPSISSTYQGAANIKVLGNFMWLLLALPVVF

With “anti-FLAG M2 antibody (A2220 Sigma-Aldrich), covalently linked to agarose beads”, the beta-lactamase reporter (nitrocefin-BLA analysis), fold-change against the negative control without beads; PIC assay with sX406, sX216 and regulatory sX437 turned out to be 2 fold; the beta-lactamase reporter, fold-change against the negative control; OR operation, Experiment A (BaF beads only) lay in the range of 3 to 4 fold; the nitrocefin hydrolysis readout (image intensity), fold-increase against negative controls at 6 hrs; PIC assay with immobilization, strains sX384 and sX387, BaF beads was in the range of 6 to 10 fold.
